Test results from article PMC6250738.

Assays:
Test in all cases: SEC; Superdex 200 10/30 GL, PBS, native conditions; MW from elution volume against protein standards
[1] = biological target: NanoLuc luciferase-TriggerTrimer-galectin-3 trimeric nanoassembly (deep sea shrimp | not stated | human)
[2] = biological target: chondroitinase ABC I-TriggerTrimer-galectin-3 trimeric nanoassembly
[3] = biological target: superfolder green fluorescent protein-TriggerTrimer-galectin-3 trimeric nanoassembly

In the case of “NanoLuc luciferase-TriggerTrimer-galectin-3 trimeric nanoassembly”, the stoichiometry N [1] is reported as 3.

In the case of “chondroitinase ABC I-TriggerTrimer-galectin-3 trimeric nanoassembly”, the stoichiometry N [2] is reported as 3.

“superfolder green fluorescent protein-TriggerTrimer-galectin-3 trimeric nanoassembly” gave a stoichiometry N [3] of 3.
